Source: US9670514B2, “Method for producing polysaccharide” (SANYO CHEMICAL INDUSTRIES, LTD., priority 2011, dated 2017)

B1: ribonucleotide diphosphate reductase aqueous solution (D6-1): ribonucleotide diphosphate reductase, SEQ ID NO: 3, derived from Corynebacterium glutamicus (protein, listed as Corynebacterium glutamicum)
chain: MAADSDLSVHDAYLKEHVAPVKAINWNSIPDSKDLEVWDRLTGNFWLPEKVPVSNDIKSWGTLNEVEKAATMRVFTGLTLLDTIQGTVGAISLLPDADSLHEEAVLTNIAFMESVHAKSYSNIFMTLASTAEINDAFRWSEENENLQRKAKIILSYYEGDDPLKRKIASVILESFLFYSGFYLPMYWSSHSKLTNTADVIRLIIRDEAVHGYYIGYKYQKAVAKETPERQEELKEYTFDLLYDLYDNETQYSEDLYDDLGWTEDVKRFLRYIANKALNNLGYEGLFPADETKVSPNILSALSPNADENHDFFSGSGSSYVIGKAENTEDDDWDF
B2: nucleotidase aqueous solution (D3-1): nucleotidase, SEQ ID NO: 5, derived from Escherichia coli (protein, listed as Escherichia coli)
chain: MKQSHFFAHLSRLKLINRWPLMRNVRTENVSEHSLQVAMVAHALAAIKNRKFGGNVNAERIALLAMYHDASEVLTGDLPTPVKYFNSQIAQEYKAIEKIAQQKLVDMVPEELRDIFAPLIDEHAYSDEEKSLVKQADALCAYLKCLEELAAGNNEFLLAKTRLEATLEARRSQEMDYFMEIFVPSFHLSLDEISQDSPL
B3: apyrase aqueous solution (D2-1): apyrase, SEQ ID NO: 7, derived from xenopus (protein, listed as Xenopus laevis)
chain: MKSPQVECKESMSPLRISVAGLPVLASMTKTADPRFRPRWRAILLSGIAVAFLLLLLCYHRSSGPRIQVANPHNWRMVHQVAGELYNDTYPLTPPLRTPEGLRYHIAIIADLDTDSRSAKANTWVSYLKRGYLTLSSSGDHVAVEWEKEDIVLETHLAEKGRGMELSELIVFNGKLYSVDDRTGVVYRIEGSKAVPWVILTDGDGTVGKGFKAEWLAVKDEQLYVGGLGKEWTTTSGVVLNENPEWVKVIGPRGDTQHHNWVSNYNQLRSAAGIQPPGYLIHESAAWSDSLKSWFFLPRRASQEQYSEKEDEKRGSNILLRATPDFSDIKMSHVGTLNPTHGFSSFKFIPGTDDQIIVALKSEEDNGKVATYITAFTLDGRILLPETKVGNVKYEGIEFI
B4: nucleoside diphosphate kinase aqueous solution (D4-1-2): nucleoside diphosphate kinase, SEQ ID NO: 8, derived from rat pancreas (protein)
chain: LSGIAVAFLLLLLCYHRSSGPRIQVANPHNWRMVHQVAGELYNDTYPLTPPLRTPEGLRYHIAIIADLDTDSRSAKANTWVSYLKRGYLTLSSSGDHVAVEWEKEDIVLETHLAEKGRGMELSELIVFNGKLYSVDDRTGVVYRIEGSKAVPWVILTDGDGTVGKGFKAEWLAVKDEQLYVGGLGKEWTTTSGVVLNENPEWVKVIGPRGDTQHHNWVSNYNQLRSAAGIQPPGYLIHESAAWSDSLKSWFFLPRRASQEQYSEKEDEKRGSNILLRATPDFSDIKMSHVGTLNPTHGFSSFKFIPGTDDQIIVALKSEEDNGKVATYITAFTLDGRILLPETKVGNVKYEGIEFI
modifications: Rat pancreas
B5: arginine kinase aqueous solution (D4-1-3): arginine kinase, SEQ ID NO: 9, derived from Toxoplasma gondii (protein, listed as Toxoplasma gondii)
chain: MLSAASPALARKSFDFRGSALRHFSSSGGHRGSSDTKISPGHSDKSGEPLDLPVFTSTKQIATIGPASWDYEEIERLFLAGVDVFRLNMSHGLLTEKHQQLLHVRHLEKVYKHPIAVLADLPGPKFRLGVFNNDEATLETGKSFILDSSTQPGDASRVQLPHPEILSVLRPDDIVLMDDGKVKLRVTEVFADTTALSRGLGDIESVSHTASPGSSVVRAPAVRCTVLVGGRISSKKGVNVPSARLPISALSARDRELARTVASWGVDWIALSFVQSADDVHELRRELREAAEAAGSTTAQYAAEQNRSESHVDRGDASGAGCRIRPDISVMVKIEKPIALENIAEIVAAADGIMVARGDLGVELPNIAWLPRVQKRLVSLCREAGKPVVVATQMLESMMQAPLPTRAEVSDVANAVYDGADAVMLSGETAAGNAPARVACMQRLGIEGVENDPSFWELEDQRRQARLRAAERCASTGTSALRVPRASKGREQELEKGSELQGESRDRTEEILSRFLPGRREHLAFSEADRQGNTSGDTNQGTSKTEQGADESDAWVEHTAAAVARQSGAKAIVVFGENEALLQRLATLRPTAPVLAVTECVHTARRLKMYWGIYPVLLEAEDQANVESRARRPASLDDQLRLACEFARKEKFATESTDNLVVLGRLPGGRENGTNSDKTTARLTRPILTVCTLESGR
modifications: aqueous solution

How the values were obtained:
[1] = Specific activity of ribonucleoside diphosphate conversion enzyme solutions (TLC, UV 260 nm); type: biochemical; conditions: 1 mM uridine diphosphate, 30° C., pH 7.0, with the co-substrate of each enzyme
Experimental: Reaction solution (2) was prepared by adding 10 μL of 1 M sucrose aqueous solution and 10 μL of sucrose synthase aqueous solution (D7-1) to 1 mL of aqueous solution R (50 mM phosphate buffer (pH of 7.0) containing 100 mM sodium chloride, 10 mM magnesium chloride, and 1 mM uridine diphosphate). Three such reaction solutions (2) were prepared and allowed to react at 30° C. for 5 minutes, 10 minutes, and 15 minutes, respectively. As for the amount of compound (C-7) as the reaction product (uridine diphosphate-glucose), the reaction product was developed on TLC (PEI-Cellulose plate available from Sigma-Aldrich Corporation, hereinafter the same) (developing solvent: an aqueous solution containing 1 M LiCl and 1 M formic acid, hereinafter the same), and detected with a UV light (260 nm). The specific activity of sucrose synthase aqueous solution (D7-1) was calculated to be 0.3 U/μL from the relationship between the yield of compound (C-7) and the reaction time.
Reaction solution (3) was prepared by adding 0.1 mg of reduced thioredoxin and 10 μL of ribonucleotide diphosphate reductase aqueous solution (D6-1) to 1 mL of aqueous solution R. Three such reaction solutions (3) were prepared and allowed to react at 30° C. for 5 minutes, 10 minutes, and 15 minutes, respectively. As for the amount of compound (C-6) as the reaction product (deoxyuridine diphosphate), the reaction product was developed on TLC and detected with a UV light (260 nm). The specific activity of ribonucleotide diphosphate reductase aqueous solution (D6-1) was calculated to be 0.3 U/μL from the relationship between the yield of compound (C-6) and the reaction time.
Reaction solution (4) was prepared by adding 10 μL of 1 M monopotassium phosphoenolpyruvate aqueous solution (available from Wako Pure Chemical Industries, Ltd.) and 10 μL of pyruvate kinase aqueous solution (D4-1-1) to 1 mL of aqueous solution R. Three such reaction solutions (4) were prepared and allowed to react at 30° C. for 5 minutes, 10 minutes, and 15 minutes, respectively. For the amount of compound (C-4) as the reaction product (uridine triphosphate), the reaction product was developed on TLC and detected with a UV light (260 nm). The specific activity of pyruvate kinase aqueous solution (D4-1-1) was calculated to be 0.3 U/μL from the relationship between the yield of compound (C-4) and the reaction time.
Reaction solution (5) was prepared by adding 10 μL of nucleotidase aqueous solution (D3-1) to 1 mL of aqueous solution R. Three such reaction solutions (5) were prepared and allowed to react at 30° C. for 5 minutes, 10 minutes, and 15 minutes, respectively. For the amount of compound (C-3) as the reaction product (uridine monophosphate), the reaction product was developed on TLC and detected with a UV light (260 nm). The specific activity of nucleotidase aqueous solution (D3-1) was calculated to be 0.3 U/μL from the relationship between the yield of compound (C-3) and the reaction time.
Reaction solution (6) was prepared by adding 1 mg of polyuridine (product name “polyuridylic acid potassium salt” available from Sigma-Aldrich Corporation) and 10 μL of polyribonucleotide nucleotidyltransferase aqueous solution (D5-1) to 1 mL of aqueous solution R. Three such reaction solutions (6) were prepared and allowed to react at 30° C. for 5 minutes, 10 minutes, and 15 minutes, respectively. […]

[2] = Enzyme activity ratio (Y1)=Vmax1/Vmax2 of conversion enzyme (Lineweaver-Burk); type: biochemical; conditions: each
Text: In the present invention, in the case where ribonucleoside diphosphate conversion enzyme (D) is used, an enzyme activity ratio (Y1) calculated from the following formula (1) using enzyme activity Vmax1 and enzyme activity Vmax2 described below is preferably not lower than 0.1 in terms of efficient polysaccharide production and efficient use of the substrate (ribonucleoside diphosphate-monosaccharide (A)). Enzyme activity ratio (Y1)=Vmax1/Vmax2 (1) • Enzyme activity Vmax1: the enzyme activity of ribonucleoside diphosphate conversion enzyme (D) on ribonucleoside diphosphate. • Enzyme activity Vmax2: the enzyme activity of ribonucleoside diphosphate conversion enzyme (D) on ribonucleoside diphosphate-monosaccharide (A).
An enzyme reaction solution (II) containing specific amounts of substrate (ribonucleoside diphosphate or uridine diphosphate-monosaccharide (A)), enzyme (polysaccharide synthase (B) or ribonucleoside diphosphate conversion enzyme (D)), pH adjuster (K), and water is prepared, which is adjusted to a specific temperature and a specific pH. • Phosphate-containing compound (F) is added, if necessary, to the enzyme reaction solution (II) if the enzyme to be used is (D4). Reducing agent (d6) is added if the enzyme is (D6), and raw material (d7) of nucleotide sugar is added if the enzyme is (D7).
After preparation of the enzyme reaction solution (II), it is allowed to stand for enzyme reaction for 1 minute to 100 hours. Next, the amount (X) of the reaction product obtained from the reaction is measured to determine the initial enzyme reaction velocity v. Likewise, the initial enzyme reaction velocity v is determined, using the enzyme reaction solution (II) having a different substrate concentration. A Lineweaver-Burk plot is generated from the above-obtained initial enzyme reaction velocity v and substrate concentration, and the enzyme activity Vmax is determined therefrom.
The enzyme activity Vmax (M/s) is determined using Lineweaver-Burk plot derived from Michaelis-Menten kinetics. […]
In the above measurement, the result determined using ribonucleoside diphosphate conversion enzyme (D) as an enzyme and ribonucleoside diphosphate as a substrate represents Vmax1, and the result determined using ribonucleoside diphosphate conversion enzyme (D) as an enzyme and ribonucleoside diphosphate-monosaccharide (A) as a substrate represents Vmax2. In the case where two or more types of ribonucleoside diphosphate-monosaccharide (A) are used, Vmax2 is determined for each ribonucleoside diphosphate-monosaccharide (A). The enzyme activity ratio (Y1) is also determined for each type from formula (1) using each Vmax2. […]
Enzyme reaction solution (II-1) was prepared by adding the following to 1 mL of aqueous solution P (50 mM phosphate buffer (pH of 7.0) containing 100 mM sodium chloride and 10 mM magnesium chloride): a substrate (uridine diphosphate) to a concentration of 0.5 mM in the solution, sucrose (available from Wako Pure Chemical Industries, Ltd.) to a concentration of 100 mM in the solution, and 1 μL of sucrose synthase aqueous solution (D7-1). […] Enzyme reaction solution (II-1) was allowed to stand at 30° C. for enzyme reaction for 30 minutes while measuring the amount of the reaction product (uridine diphosphate-glucose) using HPLC at 5-minute intervals, and the initial enzyme reaction velocity v was calculated. […]

[3] = Vmax2 substrates uridine diphosphate-glucuronic acid and uridine diphosphate-N-acetylglucosamine
[4] = Vmax2 substrates UDP-glucuronic acid, -N-acetylglucosamine, -N-acetylgalactosamine, -glucose, -mannose, -glucosamine

Molecule	specific activity [1] [U/μL]	enzyme activity ratio (Y1) of each type [2, 3]	enzyme activity ratio (Y1) of each type [2, 4]
B1	0.3	≥ 10	
B2	0.3	≥ 10	
B3	0.3	≥ 10	
B4	0.3		≥ 10
B5	0.3		≥ 10
